From the supplement of paper PMC7877785
± gives the uncertainty stated by the source.

Experiment: self-splicing fitness, log relative to wild type (ln ratio); higher = more splicing; Tetrahymena group I intron in knt gene, E. coli kanamycin selection, DiMSum; sequences stand for … in CUCUCU…GGAGGGAAAAGUUAUCAGGCAUGCACCUGGUAGCUAGUCUUUAAACCAAUAGAUUGCAUCGGUUUAAAAGGCAAGACCGUCAAAUUGCGGGAAAGGGGUCAACAGCCGUUCAGUACCAAGUCUCAGGGGAAACUUUGAGAUGGCCUUGCAAAGGGUAUGGUAAUAAGCUGACGGACAUGGUCCUAACCACGCAGCCAAGUCCUAAGUCAACAGAUCUUCUGUUGAUAUGGAUGCAGUUCACAGACUAAAUGUCGGUCGGGGAAGAUGUAUUCUUCUCAUAAGAUAUAGUCGGACCUCUCCUUAAUGGGAGCUAGCGGAUGAAGUGAUGCAACACUGGAGCCGCUGGGAACUAAUUUGUAUGCGAAAGUAUAUUGAUUAGUUUUGGAGUACUCGUGGUCG
Summary of the method: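 A randomised library covering all eight P1ex-region intron nucleotides was built with the intron in the knt kanamycin-resistance gene on pET-22b(+) and held in E. coli BL21(DE3). Cells were grown overnight at 37°C or 30°C on LB agar, with or without 25 μg/mL kanamycin, plus 100 μg/mL carbenicillin, 50 μM IPTG and 0.2% rhamnose, and pooled colonies were amplicon-sequenced on an Illumina HiSeq 2500. DiMSum fitness is the error-weighted combination of wild-type-normalised replicate fold changes, kanamycin versus none.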

Sequence	self-splicing fitness (ln) (30 °C)	self-splicing fitness (ln) (37 °C)
UUACAGCAAUAUUACGGUUG	-0.8 ± 0.054	-0.338 ± 0.07
UUACAGCAAUAUUACGUAGG	-1.12 ± 0.066	-1.19 ± 0.096
UUACAGCAAUAUUACGUCUU	-1.49 ± 0.069	-0.819 ± 0.09
UUACAGCAAUAUUACGUGCU	-3.78 ± 0.2	-2.26 ± 0.23
UUACAGCAAUAUUACGUGGA	-1.88 ± 0.095	-1.41 ± 0.094
UUAGAGCAAUAUUACGAAUU	-1.77 ± 0.28	
UUAGAGCAAUAUUACGACAU	-1.894 ± 0.018	-1.19 ± 0.036
UUAGAGCAAUAUUACGACUC	-2.73 ± 0.39	
UUAGAGCAAUAUUACGAGAU		-2.03 ± 0.43
UUAGAGCAAUAUUACGAGCG	-0.362 ± 0.17	-0.824 ± 0.25
UUAGAGCAAUAUUACGAGGU		-2.29 ± 0.35
UUAGAGCAAUAUUACGAUUU	-2.08 ± 0.18	-1.88 ± 0.26
UUAGAGCAAUAUUACGCAAA	-1.89 ± 0.14	-0.682 ± 0.16
UUAGAGCAAUAUUACGCCAU	-2.82 ± 0.32	
UUAGAGCAAUAUUACGCGAU	-3.09 ± 0.19	-2.19 ± 0.24
UUAGAGCAAUAUUACGCGCG	-0.351 ± 0.16	0.871 ± 0.18
UUAGAGCAAUAUUACGCGGG	-1.91 ± 0.13	-0.56 ± 0.13
UUAGAGCAAUAUUACGCUCU	-3.64 ± 0.47	-1.85 ± 0.3
UUAGAGCAAUAUUACGCUGC		-2.29 ± 0.37
UUAGAGCAAUAUUACGCUGG	-1.75 ± 0.11	-0.227 ± 0.18
UUAGAGCAAUAUUACGGAAG	-2.58 ± 0.33	
UUAGAGCAAUAUUACGGAUA	-2.47 ± 0.31	
UUAGAGCAAUAUUACGGCAC	-3.59 ± 0.38	-1.95 ± 0.38

Sequence	self-splicing fitness (ln) (30 °C)	self-splicing fitness (ln) (37 °C)
UUAGAGCAAUAUUACGGCAG	-1.01 ± 0.18	-0.707 ± 0.24
UUAGAGCAAUAUUACGGCUU	-2.83 ± 0.21	-1.79 ± 0.22
UUAGAGCAAUAUUACGUAAC	-2.76 ± 0.39	-1.73 ± 0.49
UUAGAGCAAUAUUACGUAGC	-2.12 ± 0.24	
UUAGAGCAAUAUUACGUCCG	-2.38 ± 0.24	-1.99 ± 0.34
UUAGAGCAAUAUUACGUGAC	-3.13 ± 0.18	-2.64 ± 0.24
UUAGAGCAAUAUUACGUUAU	-3.14 ± 0.16	-2.14 ± 0.19
UUAGAGCAAUAUUACGUUCU	-4.07 ± 0.27	-2.92 ± 0.3
UUAGAGCAAUAUUACGUUGA	-2.03 ± 0.1	-0.538 ± 0.12
UUAUAGCAAUAUUACGACAA	-0.403 ± 0.12	-0.279 ± 0.11
UUAUAGCAAUAUUACGACGG	-0.906 ± 0.11	-0.144 ± 0.16
UUAUAGCAAUAUUACGAUGC	-2.99 ± 0.34	-1.93 ± 0.32
UUAUAGCAAUAUUACGCCGA	-0.888 ± 0.2	0.064 ± 0.25
UUAUAGCAAUAUUACGGAUU	-3.1 ± 0.43	-2.02 ± 0.29
UUAUAGCAAUAUUACGGCCG	-0.763 ± 0.48	-0.565 ± 0.37
UUAUAGCAAUAUUACGGCGC	-0.766 ± 0.18	-0.308 ± 0.17
UUAUAGCAAUAUUACGGGAC	-2.91 ± 0.31	-2.4 ± 0.34
UUAUAGCAAUAUUACGGGGA	-1.89 ± 0.13	-1.38 ± 0.15
UUAUAGCAAUAUUACGGGUA	-2.85 ± 0.2	-1.65 ± 0.19
UUAUAGCAAUAUUACGGGUC	-2.3 ± 0.32	-2.47 ± 0.41
UUAUAGCAAUAUUACGGGUU	-3.8 ± 0.26	-1.13 ± 0.15
UUAUAGCAAUAUUACGGUAA	-1.31 ± 0.17	-0.924 ± 0.17
